Source: patent US9434716B2, “Antigen binding proteins” (Glaxo Group Limited, priority 2011, dated 2016)
“Also recorded” adds a separate entry of the source.

What was measured:
native human SAP = biological target: T1, native human SAP (Homo sapiens, UniProt P02743); experiment: Double immunodiffusion in agarose gel; format: binding; settings: isolated pure human SAP and whole human serum
T1 construct: against both isolated pure human SAP and whole human serum; from tissue; host or cells: whole human serum, and isolated pure human SAP
T1 sequence (P02743 20-223): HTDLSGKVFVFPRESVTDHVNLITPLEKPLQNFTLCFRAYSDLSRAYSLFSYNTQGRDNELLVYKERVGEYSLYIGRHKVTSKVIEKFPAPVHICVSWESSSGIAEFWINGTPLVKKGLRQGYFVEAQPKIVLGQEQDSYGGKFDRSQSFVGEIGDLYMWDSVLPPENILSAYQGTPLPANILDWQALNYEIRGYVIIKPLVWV

human SAP [1] = biological target: T2, human SAP (Homo sapiens, UniProt P02743); experiment: Western blotting and fragment epitope mapping (CNBr, chymotrypsin); format: binding
T2 construct: from tissue; host or cells: natural human SAP, purified
T2 sequence (P02743 20-223): as above
Text: This is consistent with the kinetic stability and resistance to denaturation of SAP (Manning, M. and Colón, W. (2004) Biochemistry, 43: 11248-11254).
B, SDS-PAGE analysis of SAP cleaved with CNBr. […] These were precisely confirmed by mass spectrometry. […] C, SDS-PAGE analysis of SAP digested with chymotrypsin. Left panel: Coomassie blue stain; lane 1, untreated control SAP; lane 2, SAP after chymotrypsin digestion, showing the expected major fragments corresponding to residues 1-140 and 145-204. These were precisely confirmed by mass spectrometry. Right panel: Western blot with SAP-E showing intense staining of intact untreated SAP in lanes 1 (500 ng loaded) and 2 (100 ng), and also residual intact SAP in lanes 3 and 4 which contained the chymotrypsin digested SAP at different loadings. Very weak binding of SAP-E to the residue 1-140 fragment is seen only in lane 3 which was most heavily loaded. […] D, Sequence comparison between human SAP (h) and mouse SAP (m) for residues 136-147. Top panel, differences indicated above by residues shown in black in the murine sequence. Bottom panel, position of this extended loop with 140Y at its apex shown in white in the 3D subunit structure of human SAP. The different residues in the murine sequence are shown in black. The grey spheres represent the calcium atoms bound in the ligand binding pocket.

[2] = test system: mice with systemic AA amyloidosis; experiment: SAP-E versus SAP-K in clearing systemic AA amyloid deposits (Example 16); format: in vivo, mouse; settings: lower doses
Protocol: AA amyloidosis was induced and confirmed in wild-type C57BL/6 mice as detailed in Example 10 above. After loading the amyloid deposits with human SAP also detailed in Example 10, groups of mice were treated with 3 mg and 1 mg per mouse of the two different antibodies. […] All mice were bled for assay of circulating anti-SAP antibody at days 1, 5 and 15 after dosing with antibody, and all were killed on day 21 for estimation of amyloid load by Congo red staining. All sera were assayed for anti-SAP activity using a robust immunoradiometric assay standardised with purified SAP-E and SAP-K respectively, spiked at known concentrations into normal mouse serum.
Amyloid load was scored by four independent expert observers all blinded to the identity of each tissue examined. The scores of all observers were, as usual highly concordant and for statistical analysis, the total scores of all observers for both spleen and liver for each mouse were summed.

human SAP [3] = biological target: T2, human SAP; experiment: Biacore kinetics, human SAP captured on immobilised O-phosphoethanolamine; format: binding; settings: CM5 chip, calcium; bivalent analyte model; 25° C.; for comparison only, avidity effect
Protocol: O-phosphoethanolamine was immobilised on a Biacore CM5 chip by primary amine coupling in accordance with the manufacturer's instructions. Human SAP was then captured on the surface in the presence of calcium chloride, in order to replicate in the Biacore system in vitro, the precise orientation of SAP molecules bound to amyloid fibrils in vivo. Anti SAP antibodies were then passed over this surface at 256, 64, 16, 4, 1 nM and a binding sensorgrams obtained. Analysis was carried out at 25° C. using 4% BSA, 10 mM Tris, 140 mM NaCl, 2 mM CaCl2, 0.05% surfactant P20, 0.02% Na N3, pH 8.0 as running buffer. […] Data generated were double referenced with a buffer injection over the human SAP surface and analyzed using the bivalent analyte model in the Biacore T100 evaluation software.

[4] = test system: mice with systemic AA amyloidosis; experiment: Low dose SAP-E and SAP-K in clearing systemic AA amyloid deposits (Example 17); format: in vivo, mouse; settings: low doses
Protocol: AA amyloidosis was induced and confirmed in wild-type C57BL/6 mice as detailed in Example 10 above. After loading the amyloid deposits with human SAP as also detailed in Example 10, groups of mice (n=10 each) were treated with single doses of either 0.5 mg and 1 mg per mouse of the two different antibodies, or 6 repeated doses of 0.15 mg, given at 3 or 4 day intervals. […] All were killed on day 29 for estimation of amyloid load by Congo red staining.

human CRP = biological target: T3, human CRP (Homo sapiens, UniProt P02741); experiment: Western blotting against CRP; format: binding; settings: western blot, 500 ng and 100 ng loaded
T3 sequence (P02741 19-224): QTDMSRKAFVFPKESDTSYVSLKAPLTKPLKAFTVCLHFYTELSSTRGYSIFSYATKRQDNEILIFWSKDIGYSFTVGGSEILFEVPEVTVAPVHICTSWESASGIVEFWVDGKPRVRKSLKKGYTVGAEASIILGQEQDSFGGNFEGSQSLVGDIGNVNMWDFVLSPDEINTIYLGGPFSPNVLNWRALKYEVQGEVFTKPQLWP

human SAP [5] = biological target: T2, human SAP; experiment: Competition ELISA with chimeric anti-SAP mAb; format: binding; settings: human SAP coated at 1 μg/mL; purified murine mAb
Text: A constant concentration of chimeric anti-SAP mAb was mixed with serial diluted (1:1) amounts of mouse anti-SAP mAbs. Plates were washed and the amount of chimeric antibody bound to the immobilised human SAP was detected using goat anti-human Kappa Light chain peroxidase conjugate (Sigma, A7164). The ELISA was developed using O-phenylenediamine dihydrochloride (OPD) peroxidase substrate (Sigma, P9187).

human SAP [6] = biological target: T2, human SAP; experiment: Immunoradiometric assay, human SAP captured by immobilised sheep polyclonal anti-human SAP antibody; format: binding; settings: all levels of human SAP input; mean of 3 replicates
Text: (§1) SAP-K was selected from among the 6 different, most avidly binding, mouse IgG2a monoclonals, derived by standard techniques from immunization with purified human SAP and a conventional fusion to produce hybridomas which were cloned by routine methods. […] This was the case regardless of whether the human SAP had been directly immobilised on plastic surfaces by non-specific adherence or by covalent attachment, or by the specific calcium dependent binding of SAP to immobilised ligands, whether amyloid fibrils or the small molecule ligand, phosphoethanolamine. SAP-K also bound well to directly immobilised SAP in the presence or absence of calcium, and if the SAP had previously been complexed with CPHPC and then covalently ‘fixed’ in the decameric SAP-CPHPC complex (Pepys, M. B. et al (2002) Targeted pharmacological depletion of serum amyloid P component for treatment of human amyloidosis. Nature, 417: 254-259; Kolstoe, S. E. et al (2009) Molecular dissection of Alzheimer's disease neuropathology by depletion of serum amyloid P component. Proc. Natl. Acad. Sci. USA, 106: 7619-7623). SAP-E also bound well to human SAP in all these different configurations.
Each point is the mean of 3 replicates.

human SAP [7] = biological target: T2, human SAP; experiment: Binding of mouse monoclonals to immobilised human SAP in vitro
Text: SAP-E and SAP-K are from two groups of anti-SAP monoclonals, each group having been tested separately for their binding to human SAP in vitro.
as §1

human SAP [8] = biological target: T2, human SAP; experiment: Biacore (BIAcoreX), human SAP covalently immobilised on the chip; format: binding; settings: mean and SD of 3 replicate measurements

B1: SAP-E: mouse IgG2a monoclonal anti-human SAP antibody, VH SEQ ID NO:7, VL SEQ ID NO:9 (antibody, V domains shown)
VH: QASLQQSGTELVRSGASVKMSCKASGFTFATYNMHWIKQTPGQGLEWIGYIYPGDGNANYNQQFKGKATLTADTSSNTAYMQISSLTSEDSAVYFCARGDFDYDGGYYFDSWGQGTTLTVSS
VL: DIQMTQSPASLSASVGETVTITCRASENIYSYLAWYQQKQGRSPQLLVHNAKTLAEGVPSRVSGSGSGTHFSLKINGLQPEDFGNYYCQHHYGAPLTFGAGTKLELK
- binding to native human SAP (immunoprecipitation) (native human SAP): bound apparently equally well to native human SAP
- binding to native human SAP in western blotting (human SAP [1]; after agarose gel electrophoresis in physiological buffers): bound
- binding to human SAP in western blotting from reduced SDS-PAGE (human SAP [1]; denatured human SAP): only SAP-E bound
- epitope recognised (human SAP [1]; residues of human SAP, CNBr and chymotrypsin fragments): region 140-158
- potency in clearing amyloid, SAP-E compared with SAP-K [2]: apparently more potent than SAP-K at the lower doses
- ka (human SAP [3]): 31500 M⁻¹ s⁻¹
- kd (human SAP [3]): 1.51e-08 s⁻¹
- potency in clearing amyloid, SAP-E compared with SAP-K [4]: again apparently more potent than SAP-K
- reaction with isolated pure human CRP (human CRP): did not react at all
- competition with SAP-K chimera (human SAP [5]): no competition
- binding to human SAP captured by sheep polyclonal anti-human SAP (human SAP [6]): SAP-E bound better than SAP-K at all levels of human SAP input; also recorded: Substantially more SAP-E than SAP-K bound at all concentrations of human SAP offered
- binding to immobilised human SAP (human SAP [7]; abundant immobilised SAP, coating solution 100 μg/ml): more binding of SAP-E than SAP-K
- binding to human SAP in vitro (human SAP [7]; compared within the group of monoclonals): strongest binding to SAP, within their groups
- kd (human SAP [8]): 6 ± 4 × 10^−5 sec^−1
